Test results from the RNAGym collection of RNA variant scans (doi:10.7554/elife.80360).

B1: HDV Ribozyme (parent)
chain: GGCCGGCAUGGUCCCAGCCUCCUCGCUGGCGCCGGCUGGGCAACAUUCCGAGGGGACCGUCCCCUCGGUAAUGGCGAAUGGGACCCA

Variants of: B1
Assay: self-cleavage, relative activity (ratio to wild type); higher = more cleavage; co-transcriptional

Compared with C57U G74C, A56U U69A is higher in self-cleavage: 0.208 for the first, 1.04 for the second.

First: A56G A87C
Second: C57G A83U
The self-cleavage of the first is higher: 0.993 for the first, 0.587 for the second.

Going from C57G A83C to A56C C64A, the self-cleavage rises from 0.554 to 0.911.

Compared with A56C C64U, A56C G74U is lower in self-cleavage: 1.12 for the first, 0.708 for the second.

First: A56C G74A
Second: C57A C58A
The self-cleavage of the first is lower: 0.65 for the first, 1.07 for the second.

Going from C57A A78C to C57A A78U, the self-cleavage rises from 0.0437 to 0.108.

Compared with G55U G82C, G55U G82U is higher in self-cleavage: 0.233 for the first, 0.426 for the second.

Going from G55C U72C to A56C G80C, the self-cleavage falls from 0.798 to 0.189.

First: A56C G80A
Second: C57U C84A
The self-cleavage of the first is lower: 0.292 for the first, 0.748 for the second.

Compared with C57U C84U, G55U C85G is higher in self-cleavage: 0.856 for the first, 0.927 for the second.

Going from G55U C85A to G55U C85U, the self-cleavage falls from 1.09 to 0.92.

First: A56G C57U
Second: G55C G76C
The self-cleavage of the first is higher: 0.985 for the first, 0.943 for the second.

Compared with G55U A83G, G55U A83U is lower in self-cleavage: 0.842 for the first, 0.409 for the second.

Going from A56C U79G to A56C U79A, the self-cleavage falls from 0.997 to 0.554.

Compared with A56U G68U, A56U G68A is lower in self-cleavage: 1.01 for the first, 0.819 for the second.

First: C58A A77U
Second: C58A A77C
The self-cleavage of the first is higher: 0.78 for the first, 0.482 for the second.

Compared with C58A A77G, C57U G82U is lower in self-cleavage: 1.09 for the first, 0.234 for the second.

Going from A56G G59A to A56G C58A, the self-cleavage rises from 0.849 to 1.12.

First: A56G C58U
Second: C58A C61A
The self-cleavage of the first is lower: 0.862 for the first, 1.23 for the second.

Compared with G55U A71U, G55U A71G is higher in self-cleavage: 0.786 for the first, 1.04 for the second.

Going from A56C A87C to C57U G81C, the self-cleavage falls from 1.04 to 0.0604.

Going from C57U G81A to G55U A56G, the self-cleavage rises from 0.415 to 0.912.

First: A56U G76A
Second: C57A A70G
The self-cleavage of the first is higher: 0.939 for the first, 0.852 for the second.

First: C57A A70C
Second: A56C C61G
The self-cleavage of the first is lower: 0.773 for the first, 1.05 for the second.

Going from G55C G68U to C57U G68A, the self-cleavage falls from 1.08 to 1.02.

Going from C57U G68C to C57U G68U, the self-cleavage rises from 0.85 to 1.17.

Going from C57A A71C to C57G C61A, the self-cleavage rises from 0.866 to 1.03.

First: C57A A87G
Second: A56U G67U
The self-cleavage of the first is higher: 1.07 for the first, 0.988 for the second.

Going from G55U to C57A G68A, the self-cleavage falls from 1.01 to 0.819.

Compared with C57A G68U, C57A A83G is lower in self-cleavage: 1.14 for the first, 0.688 for the second.

Compared with A56U U72C, A56C G67C is higher in self-cleavage: 0.489 for the first, 1.01 for the second.

Going from A56C G67U to A56C G76U, the self-cleavage rises from 0.814 to 1.19.

Going from C58A C75U to C58A C75A, the self-cleavage rises from 0.158 to 0.201.

First: A56U G82C
Second: C57G C62G
The self-cleavage of the first is lower: 0.172 for the first, 0.87 for the second.

Compared with C57G C62U, C57A G80C is lower in self-cleavage: 1.03 for the first, 0.166 for the second.

First: A56U A78G
Second: A56C A71G
The self-cleavage of the first is lower: 0.684 for the first, 0.98 for the second.

Going from G55C G80A to A56G A77G, the self-cleavage rises from 0.34 to 1.11.

Compared with C57A C63G, C57A C63U is higher in self-cleavage: 0.945 for the first, 1.12 for the second.

Going from C57A C63A to C57A C61U, the self-cleavage falls from 1.25 to 1.14.

Compared with A56U A77G, C57A G73U is lower in self-cleavage: 1.01 for the first, 0.322 for the second.

Going from G55U C66A to G55U C66U, the self-cleavage falls from 0.986 to 0.973.

First: A56G G68A
Second: G55U C63U
The self-cleavage of the first is lower: 0.96 for the first, 0.997 for the second.

Going from G55U C63G to A56G A83C, the self-cleavage falls from 0.695 to 0.0639.

First: C57A G81A
Second: C57A G81C
The self-cleavage of the first is higher: 0.339 for the first, 0.181 for the second.

Compared with C57A G81U, C57U C85U is higher in self-cleavage: 0.397 for the first, 1.11 for the second.

Compared with C57U C85A, A56U U60A is higher in self-cleavage: 0.698 for the first, 1.13 for the second.

Going from A56U U60G to A56G A70U, the self-cleavage rises from 1.07 to 1.1.

First: A56G C64U
Second: A56G C64A
The self-cleavage of the first is lower: 0.563 for the first, 0.764 for the second.

First: C57A A77G
Second: G55U G59A
The self-cleavage of the first is higher: 1.17 for the first, 1.14 for the second.

First: G55U U60A
Second: A56G A71C
The self-cleavage of the first is higher: 0.886 for the first, 0.534 for the second.

First: C57G G59A
Second: C57G G59C
The self-cleavage of the first is higher: 0.997 for the first, 0.969 for the second.

Compared with C57G G59U, C57G G76A is higher in self-cleavage: 0.978 for the first, 1.04 for the second.

Going from C57G G76C to C57G G76U, the self-cleavage rises from 0.895 to 0.984.

Going from C57A G82A to C57A G82C, the self-cleavage falls from 0.554 to 0.298.

First: G55U G73C
Second: G55U G73U
The self-cleavage of the first is higher: 0.499 for the first, 0.295 for the second.

Going from G55U A77U to G55U A77G, the self-cleavage rises from 0.453 to 0.607.

First: C57G C86G
Second: C57G C86A
The self-cleavage of the first is higher: 0.831 for the first, 0.656 for the second.

First: C57G C86U
Second: C57U U60G
The self-cleavage of the first is higher: 0.815 for the first, 0.702 for the second.

Going from C57U U60C to A56G G74A, the self-cleavage falls from 0.906 to 0.45.

Compared with C57U G73A, A56U C64G is lower in self-cleavage: 0.891 for the first, 0.882 for the second.

First: A56U C64A
Second: A56U C64U
The self-cleavage of the first is lower: 0.899 for the first, 1.07 for the second.

First: G55U U69G
Second: G55U U69C
The self-cleavage of the first is lower: 0.933 for the first, 1 for the second.

Going from G55U U69A to A56G G67C, the self-cleavage rises from 0.869 to 1.05.

First: C57A U79C
Second: C57U A78U
The self-cleavage of the first is higher: 0.429 for the first, 0.119 for the second.

Compared with C57U A78G, A56U C62U is higher in self-cleavage: 0.639 for the first, 0.847 for the second.

Going from A56U C62A to A56U G81A, the self-cleavage falls from 1.05 to 0.492.

Going from C57U C58A to C57G C85G, the self-cleavage falls from 1.13 to 1.09.

First: C57G C85A
Second: C57G U65A
The self-cleavage of the first is lower: 0.935 for the first, 1.11 for the second.

First: C57G U65C
Second: A56C U60G
The self-cleavage of the first is higher: 0.96 for the first, 0.68 for the second.

First: A56C U60A
Second: C57G G81A
The self-cleavage of the first is higher: 0.937 for the first, 0.509 for the second.

Going from G55U C86A to G55U C86U, the self-cleavage rises from 0.911 to 0.923.

Compared with A56U U79A, A56U U79C is lower in self-cleavage: 0.569 for the first, 0.429 for the second.

Compared with A56U U79G, A56G A78G is lower in self-cleavage: 0.787 for the first, 0.615 for the second.

Going from G55C U79A to C57G A87G, the self-cleavage rises from 0.527 to 0.86.

First: C57G A87C
Second: C57U A70G
The self-cleavage of the first is higher: 0.98 for the first, 0.967 for the second.

Compared with C57G A71U, C57G A71G is higher in self-cleavage: 0.91 for the first, 1.08 for the second.

First: G55U C62G
Second: C57U C63A
The self-cleavage of the first is lower: 0.793 for the first, 1.01 for the second.

Going from C57A U65G to C57A U65C, the self-cleavage falls from 1.04 to 0.762.

Going from C57G U60G to C57U C61G, the self-cleavage rises from 0.95 to 0.967.

Compared with C58A C64A, C57A C86A is higher in self-cleavage: 0.962 for the first, 0.986 for the second.

Going from C57A C86U to G55U G68U, the self-cleavage falls from 1.06 to 1.

Going from G55U G68C to C57G C84A, the self-cleavage rises from 0.744 to 0.933.

First: C57G C84U
Second: A56U C85G
The self-cleavage of the first is lower: 0.721 for the first, 0.982 for the second.

A56U C85A gave a self-cleavage of 0.966.
